For assay [1], the target named is T1, human complement protein C6 (human, UniProt P13671 22-934).
T1 construct: also called human C6; C6 antigen
Put plainly: SPR (Biacore 8K). As for the experimental part: (§1) The kinetics of C6 binding was compared for the purified chimeric and lead humanized C601 using surface plasmon resonance (SPR, Biacore 8K). IgG were captured on a protein G sensor chip and binding of C6 measured using a three-fold concentration series of C6 from 0.03 nM-25 nM (FIG. 5). In a second experiment, a two-fold concentration series from 0.31 nM-20 nM C6 was used (FIG. 6). For all antibodies, binding of C6 occurred in a concentration-dependent manner and data could be fitted using a 1:1 model to calculate the association rate (kₒₙ), dissociation rates (kd) and affinity constant (KD). The kinetic data are shown in Table 5, which indicates only small differences between the parameters determined from the two independent experiments.
(§2) Binding ELISAs used Nunc Maxisorp 384-well plates, wells coated with C6, C5b,6 complex or C5 (Complement Technology Inc, TX) and goat anti-human IgG (Fab specific) peroxidase secondary antibodies (Sigma-Aldrich, A0293) for detection. For the thermal stability assay, IgG supernatants were diluted to their EC₈₀ concentration, incubated at different temperatures for 10 min and C6 binding measured by ELISA with the binding signal plotted against temperature. Kinetics of C6 binding were measured by capturing antibodies from supernatant samples using Protein G biosensors and performing a 20 min association step with 2.5 nM C6 and a 20 min dissociation step using the Octet RED96. Precise kinetic measurements were obtained by surface plasmon resonance (Biacore 8K, Cytiva). The IgG were captured on a protein G sensor chip. Binding of C6 measured using a three-fold concentration series of C6 from 0.03 nM-25 nM and data were fitted using a 1:1 model in two independent experiments.
(Surface plasmon resonance follows binding to a sensor surface in real time, without labels.)

The target in assay [2] is T1, human complement protein C6. As to the kind of experiment: C6-binding ELISA, A650 nm; sample 'C6-depleted human serum' (28 days at 37 C) [cont.) E]. How it is done: (§3) For the serum stability assessment, samples of the purified candidate antibodies are normally incubated in mouse, human and cynomolgus serum at 37 C for 28 days and then tested in an antigen-binding ELISA. Since the anti-C6 antibodies are expected to bind to both human and cynomolgus C6 but not mouse C6, we anticipated that incubating in human or cynomolgus sera would reduce ELISA binding due to occupation of the antibody binding sites by C6 protein from the sera. Therefore, the chimeric and humanized antibodies were tested with human and mouse sera and with human sera from which the C6 protein has been depleted. […]
as §2, with “Precise kinetic measurements were obtained by surface plasmon resonance (Biacore 8K, Cytiva). The IgG were captured on a protein G sensor chip. Binding of C6 measured using a three-fold concentration series of C6 from 0.03 nM-25 nM and data were fitted using a 1:1 model in two independent experiments.” left out

The target is the same in assay [3]. As to the kind of experiment: SPR (Biacore 8K), IgG on protein G chip, C6 0.31-20 nM 2-fold series, 1:1 fit. As for the experimental part:
as §1

For assay [4] the target is unchanged. As to the kind of experiment: SPR (Biacore 8K), IgG on protein G chip, C6 0.03-25 nM 3-fold series, 1:1 fit. As for the experimental part:
as §1, §2

Assay [5] has the same target. Put plainly: C6-binding ELISA, A650 nm; sample 'mouse serum' (28 days at 37 C) [cont.) E]. As for the experimental part: as §3
as §2, with “Precise kinetic measurements were obtained by surface plasmon resonance (Biacore 8K, Cytiva). The IgG were captured on a protein G sensor chip. Binding of C6 measured using a three-fold concentration series of C6 from 0.03 nM-25 nM and data were fitted using a 1:1 model in two independent experiments.” left out

The target is the same in assay [6]. Put plainly: C6-binding ELISA, A650 nm; sample 'human serun' (human serum, 28 days at 37 C) [cont.) E]. As for the experimental part:
as §3
as §2, with “Precise kinetic measurements were obtained by surface plasmon resonance (Biacore 8K, Cytiva). The IgG were captured on a protein G sensor chip. Binding of C6 measured using a three-fold concentration series of C6 from 0.03 nM-25 nM and data were fitted using a 1:1 model in two independent experiments.” left out

The target of assay [7] is human complement protein C5 (human, UniProt P01031 19-673; P01031 678-1676). Put plainly: ELISA, C5-coated wells. As for the experimental part:
The 20 purified antibodies were tested by ELISA for their abilities to bind human complement proteins C5, C5b6 and C6. The antibodies were divided into two sets for this analysis. MoC601 HuG4K and HuG4K isotype controls were included alongside each set, as was C601HFKC4 HuG4K (aka 3713) expression supernatant from the original transfection as an additional positive control. In addition, three humanized antibodies (C601HFKC4 HuG4K, C601HPKI HuG4K and C601HPKC4 HuG4K) were included within both sets to allow better comparison between the plates. The antibodies all show specificity for C6 with no detectable binding to C5. All humanized antibodies bind to C6 and to C6 as part of the C5b6 complex. The lower plateaus of the C5b6 complex binding curves are explained by less C6 protein being available for binding when wells are coated with C5b6 complex as opposed to C6 alone. […] The EC₅₀ values are included in the figure but slightly different plateau levels observed for the antibodies are influencing the apparent EC₅₀ values. However, it was noted that the EC₅₀ values tended to be lower on the plates for the second set of antibodies. For this reason, a subset of the 20 antibodies was tested in a further ELISA for binding to C6 and C5b6 complex.
as §2

For assay [8], the target named is T1, human complement protein C6. Put plainly: C6-binding ELISA, A650 nm; sample 'PBS' (28 days at 37 C) [cont.) E]. As for the experimental part:
(§4) For the serum stability assessment, samples of the purified candidate antibodies are normally incubated in mouse, human and cynomolgus serum at 37 C for 28 days and then tested in an antigen-binding ELISA. Since the anti-C6 antibodies are expected to bind to both human and cynomolgus C6 but not mouse C6, we anticipated that incubating in human or cynomolgus sera would reduce ELISA binding due to occupation of the antibody binding sites by C6 protein from the sera. Therefore, the chimeric and humanized antibodies were tested with human and mouse sera and with human sera from which the C6 protein has been depleted. The C6-binding ELISA was then used to compare the binding abilities of the C601 antibodies that had been incubated in the 3 different sera to antibody samples that were incubated in PBS at 37 C or kept at 4 C (non-incubated).
(§5) The Uncle instrument (Unchained Labs) was used to monitor unfolding via intrinsic fluorescence and aggregation by static light scattering across a temperature gradient to obtain melting temperatures (Tₘ). […] Isoelectric points were determined by capillary isoelectric focusing using a PA800+ (Beckman Coulter). […]

For assay [9] the target is unchanged. Put plainly: ELISA, C6-coated wells, large-scale purified antibody.
Assay [10] shares this target. Put plainly: C6-binding ELISA, A650 nm; sample 'PBS, non-incubated' (kept at 4 C) [cont.) E]. As for the experimental part:
(§6) The C6-binding ELISA was then used to compare the binding abilities of the C601 antibodies that had been incubated in the 3 different sera to antibody samples that were incubated in PBS at 37 C or kept at 4 C (non-incubated).
as §2, with “Precise kinetic measurements were obtained by surface plasmon resonance (Biacore 8K, Cytiva). The IgG were captured on a protein G sensor chip.” left out
(§7) The Uncle instrument (Unchained Labs) was used to monitor unfolding via intrinsic fluorescence and aggregation by static light scattering across a temperature gradient to obtain melting temperatures (Tₘ). […] Isoelectric points were determined by capillary isoelectric focusing using a PA800+ (Beckman Coulter).
(In general: In an ELISA, binding on a coated surface is turned into a signal by an enzyme label.)

Assay [11] shares this target. As to the kind of experiment: C6-binding ELISA, A650 nm; sample 'C6-depleted human serum' (28 days at 37 C) [cont.) F]. As for the experimental part: as §3
as §2, with “Precise kinetic measurements were obtained by surface plasmon resonance (Biacore 8K, Cytiva). The IgG were captured on a protein G sensor chip. Binding of C6 measured using a three-fold concentration series of C6 from 0.03 nM-25 nM and data were fitted using a 1:1 model in two independent experiments.” left out

Assay [12] has the same target. As to the kind of experiment: C6-binding ELISA, A650 nm; sample 'PBS, non-incubated' (kept at 4 C) [cont.) F]. How it is done: as §6
as §2, with “Precise kinetic measurements were obtained by surface plasmon resonance (Biacore 8K, Cytiva). The IgG were captured on a protein G sensor chip.” left out
as §7

Assay [13] has the same target. Put plainly: C6-binding ELISA, A650 nm; sample 'mouse serum' (28 days at 37 C) [cont.) F]. As for the experimental part: as §3
as §2, with “Precise kinetic measurements were obtained by surface plasmon resonance (Biacore 8K, Cytiva). The IgG were captured on a protein G sensor chip. Binding of C6 measured using a three-fold concentration series of C6 from 0.03 nM-25 nM and data were fitted using a 1:1 model in two independent experiments.” left out

Assay [14] shares this target. As to the kind of experiment: C6-binding ELISA, A650 nm; sample 'PBS' (28 days at 37 C) [cont.) F]. How it is done: as §4, §5
Assay [15] has the same target. As to the kind of experiment: C6-binding ELISA, A650 nm; sample 'human serun' (human serum, 28 days at 37 C) [cont.) F]. As for the experimental part: as §4, §5

From US20260125455A1 (CLEVELAND CLINIC FOUNDATION, published 2026) come the findings set out here.

T1 sequence (P13671 22-934 limits assumed): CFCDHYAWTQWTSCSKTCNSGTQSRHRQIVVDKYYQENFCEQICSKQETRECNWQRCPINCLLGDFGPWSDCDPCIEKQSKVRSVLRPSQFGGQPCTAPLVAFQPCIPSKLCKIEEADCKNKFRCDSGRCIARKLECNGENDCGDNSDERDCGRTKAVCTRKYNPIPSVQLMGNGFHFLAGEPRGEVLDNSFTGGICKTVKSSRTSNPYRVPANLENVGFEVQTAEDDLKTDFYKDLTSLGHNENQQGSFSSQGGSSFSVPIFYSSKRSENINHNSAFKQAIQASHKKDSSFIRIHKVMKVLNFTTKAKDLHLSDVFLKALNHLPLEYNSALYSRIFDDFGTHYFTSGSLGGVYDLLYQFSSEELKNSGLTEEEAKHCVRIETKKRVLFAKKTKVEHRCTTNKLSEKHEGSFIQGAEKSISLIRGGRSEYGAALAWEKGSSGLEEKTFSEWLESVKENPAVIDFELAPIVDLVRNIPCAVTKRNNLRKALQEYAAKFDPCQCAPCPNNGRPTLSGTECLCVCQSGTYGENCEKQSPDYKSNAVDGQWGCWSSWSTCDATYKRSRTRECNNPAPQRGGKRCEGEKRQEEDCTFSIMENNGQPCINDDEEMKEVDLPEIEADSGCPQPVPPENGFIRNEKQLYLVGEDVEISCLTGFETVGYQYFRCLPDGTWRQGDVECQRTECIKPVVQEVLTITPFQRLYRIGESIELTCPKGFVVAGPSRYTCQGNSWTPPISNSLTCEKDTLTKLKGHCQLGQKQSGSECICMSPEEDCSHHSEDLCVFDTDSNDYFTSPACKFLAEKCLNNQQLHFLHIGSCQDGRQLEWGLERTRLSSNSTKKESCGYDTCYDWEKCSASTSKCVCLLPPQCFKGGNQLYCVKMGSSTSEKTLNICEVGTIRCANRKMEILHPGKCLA
human complement protein C5, sequence (P01031 19-673 limits assumed, chain 1 of 2): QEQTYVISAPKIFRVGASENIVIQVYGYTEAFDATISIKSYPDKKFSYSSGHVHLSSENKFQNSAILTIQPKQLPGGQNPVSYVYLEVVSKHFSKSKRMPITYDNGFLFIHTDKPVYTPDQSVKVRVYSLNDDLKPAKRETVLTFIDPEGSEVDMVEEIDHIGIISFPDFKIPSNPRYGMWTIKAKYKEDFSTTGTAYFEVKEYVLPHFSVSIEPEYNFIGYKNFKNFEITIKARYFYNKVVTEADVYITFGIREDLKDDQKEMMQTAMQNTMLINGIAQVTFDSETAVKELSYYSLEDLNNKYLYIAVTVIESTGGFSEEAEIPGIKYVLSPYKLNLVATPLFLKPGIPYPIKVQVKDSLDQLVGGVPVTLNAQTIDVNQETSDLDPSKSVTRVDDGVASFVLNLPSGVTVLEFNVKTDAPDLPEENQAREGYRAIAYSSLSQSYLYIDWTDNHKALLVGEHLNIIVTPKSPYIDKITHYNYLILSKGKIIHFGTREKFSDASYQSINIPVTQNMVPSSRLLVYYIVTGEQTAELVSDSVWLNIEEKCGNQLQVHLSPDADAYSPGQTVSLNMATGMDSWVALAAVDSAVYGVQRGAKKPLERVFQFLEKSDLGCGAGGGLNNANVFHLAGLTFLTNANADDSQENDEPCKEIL
human complement protein C5, sequence (P01031 678-1676 limits assumed, chain 2 of 2): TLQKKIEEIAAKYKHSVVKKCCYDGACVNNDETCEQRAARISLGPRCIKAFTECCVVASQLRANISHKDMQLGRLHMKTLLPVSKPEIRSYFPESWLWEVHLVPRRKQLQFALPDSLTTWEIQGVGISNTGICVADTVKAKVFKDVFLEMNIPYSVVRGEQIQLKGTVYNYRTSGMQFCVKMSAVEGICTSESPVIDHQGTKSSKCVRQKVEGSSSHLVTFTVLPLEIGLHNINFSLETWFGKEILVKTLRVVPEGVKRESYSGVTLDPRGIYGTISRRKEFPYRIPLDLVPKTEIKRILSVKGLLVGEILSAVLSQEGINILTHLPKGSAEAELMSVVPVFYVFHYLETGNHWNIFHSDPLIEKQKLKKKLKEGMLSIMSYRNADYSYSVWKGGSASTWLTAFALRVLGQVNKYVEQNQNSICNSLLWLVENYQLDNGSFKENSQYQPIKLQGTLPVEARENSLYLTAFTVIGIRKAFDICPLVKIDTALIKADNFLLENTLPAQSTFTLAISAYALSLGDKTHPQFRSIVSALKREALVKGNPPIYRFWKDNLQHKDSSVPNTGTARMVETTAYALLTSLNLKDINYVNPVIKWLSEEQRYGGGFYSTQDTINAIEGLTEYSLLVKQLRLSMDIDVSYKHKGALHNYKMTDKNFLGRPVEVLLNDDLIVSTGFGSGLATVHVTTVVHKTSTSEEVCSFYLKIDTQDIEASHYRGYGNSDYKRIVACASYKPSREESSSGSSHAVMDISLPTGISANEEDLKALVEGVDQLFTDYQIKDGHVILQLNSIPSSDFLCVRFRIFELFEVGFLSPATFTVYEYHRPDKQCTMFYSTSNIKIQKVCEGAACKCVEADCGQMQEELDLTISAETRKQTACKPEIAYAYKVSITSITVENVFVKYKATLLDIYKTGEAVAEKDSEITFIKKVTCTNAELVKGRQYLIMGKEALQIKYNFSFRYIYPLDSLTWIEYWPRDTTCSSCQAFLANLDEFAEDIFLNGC

B1: C601HOKC4 HuG4K (antibody, human IgG4 S228P, kappa, V domains shown)
VH: QVQLVQSGAEVKKPGESLKISCKASGYAFSDYWINWVRQMPGKGLEWMGQIYPGDDDTNYNPSFQGQATLSADKSISTAYLQWSSLKASDTAMYYCAREGYYGYTYVEYFDVWGTGTTVTVSS
VL: QIVLTQSPATLSLSPGERATLSCRASSSVSYLHWYQQKPGQSPRLWIYDTSKRATGIPARFSGSGSGTDYTLTISSLEPEDFAVYYCQQWTSNPLTFGQGTKLEIKR
For B1, the figures for the equilibrium dissociation constant (Kd) in [1], in assay [3] and in assay [4] were 0.411 nM, 0.284 nM and 0.411 nM, respectively. Moreover, the concentration giving a half-maximal response (EC50) (usually the concentration that produces a half-maximal response) in assay [2] stood at 0.15 nM; in assay [5], 0.16 nM; in [6] it was 0.16 nM; in [8] it was 0.18 nM; in [9], 0.21 nM; in [10], 0.13 nM. The koff – broadly, the first-order rate constant of dissociation – in assay [3] is 0.000375 s⁻¹; in [4] it was 0.000492 s⁻¹. Moreover, the on-rate constant (kon) (usually the rate constant with which the complex forms) was 1.32e+06 M⁻¹ s⁻¹ in assay [3] and 1.2e+06 M⁻¹ s⁻¹ in assay [4]. Further, the binding result in [7] is on record as “no binding”.

B2: C601HPKC4 HuG4K (antibody, human IgG4 S228P, kappa)
heavy: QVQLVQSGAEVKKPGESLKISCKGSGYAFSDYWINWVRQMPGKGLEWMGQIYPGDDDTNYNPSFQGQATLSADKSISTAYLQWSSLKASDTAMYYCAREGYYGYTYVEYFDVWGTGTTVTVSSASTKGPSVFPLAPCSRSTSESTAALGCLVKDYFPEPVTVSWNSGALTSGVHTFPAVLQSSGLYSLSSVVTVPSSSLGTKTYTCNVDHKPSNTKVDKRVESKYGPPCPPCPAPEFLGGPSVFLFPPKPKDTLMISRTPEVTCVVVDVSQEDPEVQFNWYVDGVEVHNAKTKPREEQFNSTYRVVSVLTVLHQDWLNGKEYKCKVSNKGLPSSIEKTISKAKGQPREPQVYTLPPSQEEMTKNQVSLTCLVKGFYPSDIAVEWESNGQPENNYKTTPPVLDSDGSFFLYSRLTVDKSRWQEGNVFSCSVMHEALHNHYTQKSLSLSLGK
light: QIVLTQSPATLSLSPGERATLSCRASSSVSYLHWYQQKPGQSPRLWIYDTSKRATGIPARFSGSGSGTDYTLTISSLEPEDFAVYYCQQWTSNPLTFGQGTKLEIKRTVAAPSVFIFPPSDEQLKSGTASVVCLLNNFYPREAKVQWKVDNALQSGNSQESVTEQDSKDSTYSLSSTLTLSKADYEKHKVYACEVTHQGLSSPVTKSFNRGEC
With B2, the Kd – broadly, the free concentration of one partner at which half of the binding sites on the other are occupied at equilibrium, for simple one-to-one binding – in assay [1] is 0.373 nM; in assay [3], 0.299 nM; in assay [4], 0.373 nM. Also, the EC50 came to 0.17 nM in assay [11]; 0.22 nM in assay [12]; 0.16 nM in [13]; 0.19 nM in [14]; 0.17 nM in [15]; 0.23 nM in [9]. In addition, the values for the koff in assay [3] and in assay [4] were 0.000355 s⁻¹ and 0.000397 s⁻¹, respectively. Also, the on-rate (kon) in assay [3] is 1.19e+06 M⁻¹ s⁻¹; in [4], 1.07e+06 M⁻¹ s⁻¹. In assay [7], the binding result is given as “no binding”.
